US20250289901A1 (CHONGQING GENRIX BIOPHARMACEUTICAL, published 2025)

T1: BCMA on the surface of NCI-H929 human plasma cell leukemia cell (human, UniProt Q02223 1-184)
T1 construct: whole, on cells; also called BCMA positive NCI-H929 cells; BCMA-positive tumor cells
T1 sequence (looked up): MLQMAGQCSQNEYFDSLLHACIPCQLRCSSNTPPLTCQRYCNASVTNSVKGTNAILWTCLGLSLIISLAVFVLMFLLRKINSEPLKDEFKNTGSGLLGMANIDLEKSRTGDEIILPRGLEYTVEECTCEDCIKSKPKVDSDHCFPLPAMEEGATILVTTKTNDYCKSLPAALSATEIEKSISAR

T2: extracellular region of human BCMA with C-terminal His tag (human, UniProt Q02223 1-54)
T2 construct: No linker between the extracellular region and the tag is stated; also called hBCMA-his; hBCMA-His
T2 sequence: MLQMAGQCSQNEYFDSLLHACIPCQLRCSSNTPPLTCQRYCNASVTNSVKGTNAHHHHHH


Legend:
[1] = target: T1, BCMA on the surface of NCI-H929 human …; assay: flow cytometry on NCI-H929 cells, goat anti-human IgG-FITC
Experimental: (§1) NCI-H929 human plasma cell leukemia cells (Cell Resource Center, Institute of Basic Medicine, Chinese Academy of Medical Sciences) in logarithmic growth phase were harvested, centrifuged, and resuspended in PBS buffer containing 1% BSA to 2×10⁶ cells/mL, and plated at 100 μL/well in 96-well V bottom plates. […] Next, the cells were washed three times with 200 μL of PBS solution, and suspended in 100 μL of PBS solution. Thereafter, the FITC channel was detected by flow cytometer (ACEA, Novocyte).

[2] = target: T2, extracellular region of human BCMA with …; assay: bridging ELISA: CD3E-FcK/CD3D-FcH coated, antibody, then BCMA-His, detected with HRP anti-His
Experimental: A 96-well ELISA plate was coated with CD3E-FcK/CD3D-FcH antigen (3 μg/mL, 100 μL/well), and was coated overnight in a refrigerator at 4° C. […] The ELISA plate was washed with PBS-0.1% Tween 20, followed by addition of BCMA-His antigen (1 μg/mL, 100 μL/well) and incubation at 37° C. for 1 hour. The ELISA plate was washed with PBS-0.1% Tween 20, followed by addition of HRP mouse anti-his IgG (Beijing ComWin Biotech Co., Ltd., cw0285M) and incubation at 37° C. for 1 hour. The ELISA plate was washed with PBS-0.1% Tween 20, and OPD substrate color development solution was added. The color development was terminated with 1 M H2SO4 after 5-10 minutes.

[3] = target: T3, CD3E on the surface of Jurkat human acute T lymphocyte leukemia cell (human, UniProt P07766 23-207); assay: flow cytometry on Jurkat cells, goat anti-human IgG-FITC
T3 construct: whole, on cells; also called CD3 positive Jurkat cells
Experimental: as §1, with “Jurkat human acute” for “NCI-H929 human plasma”, “Jurkat human acute T-lymphocyte leukemia cells” for “NCI-H929 human plasma cell leukemia cells”, “Sciences) in the logarithmic growth” for “Sciences) in logarithmic growth”

T3 sequence (P07766 23-207): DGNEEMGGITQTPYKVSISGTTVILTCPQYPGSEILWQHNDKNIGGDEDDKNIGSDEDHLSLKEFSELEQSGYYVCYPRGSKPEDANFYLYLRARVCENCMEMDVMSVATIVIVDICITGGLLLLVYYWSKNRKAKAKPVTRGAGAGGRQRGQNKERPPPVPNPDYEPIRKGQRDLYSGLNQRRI

Row | Binder | EC50 (read off the curve) [1] [nM] | binding result [2] | EC50 (read off the curve) [3] [nM]
1 | bispecific antibody CD3ExBCMA (bispecific antibody, human IgG1, kappa, It is a knob-into-hole IgG1 heterodimer with a common light chain; also called CD3E × BCMA; CD3 × BCMA) heavy 1: QVQLVESGGGVVQPGRSLRLSCAASGFKFSGYGMHWVRQAPGKGLEWVAVIWFDGSRKYYVDSVKGRFTISRDNSKNTLYLQMNSLRAEDTAVYYCARQMGYWHFGLWGRGTLVTVSSASTKGPSVFPLAPSSKSTSGGTAALGCLVKDYFPEPVTVSWNSGALTSGVHTFPAVLQSSGLYSLSSVVTVPSSSLGTQTYICNVNHKPSNTKVDKRVEPKSCDKTHTCPPCPAPEFEGGPSVFLFPPKPKDTLMISRTPEVTCVVVDVSHEDPEVKFNWYVDGVEVHNAKTKPREEQYNSTYRVVSVLTVLHQDWLNGKEYKCKVSNKALPASIEKTISKAKGQPREPQVYTLPPCREEMTKNQVSLWCLVKGFYPSDIAVEWESNGQPENNYKTTPPVLDSDGSFFLYSKLTVDKSRWQQGNVFSCSVMHEALHNHYTQKSLSLSPGK heavy 2: QVQLVQSGAEVKKPGSSVKVSCKASGYTFTNYWMHWVRQAPGQGLEWMGATYRGHSDTYYNQKFKGRVTITADKSTSTAYMELSSLRSEDTAVYYCTRGAVYAGYDVLDYWGQGTTVTVSSASTKGPSVFPLAPSSKSTSGGTAALGCLVKDYFPEPVTVSWNSGALTSGVHTFPAVLQSSGLYSLSSVVTVPSSSLGTQTYICNVNHKPSNTKVDKRVEPKSCDKTHTCPPCPAPEFEGGPSVFLFPPKPKDTLMISRTPEVTCVVVDVSHEDPEVKFNWYVDGVEVHNAKTKPREEQYNSTYRVVSVLTVLHQDWLNGKEYKCKVSNKALPASIEKTISKAKGQPREPQVCTLPPSREEMTKNQVSLSCAVKGFYPSDIAVEWESNGQPENNYKTTPPVLDSDGSFFLVSKLTVDKSRWQQGNVFSCSVMHEALHNHYTQKSLSLSPGK light: not shown | ~8 |  | 
2 | anti-CD3E monoclonal antibody H10B7+L9B9 (antibody, human IgG1, kappa, V domains shown) VH: QVQLVESGGGVVQPGRSLRLSCAASGFKFSGYGMHWVRQAPGKGLEWVAVIWFDGSRKYYVDSVKGRFTISRDNSKNTLYLQMNSLRAEDTAVYYCARQMGYWHFGLWGRGTLVTVSS VL: DIQMTQSPSSLSASVGDRVTITCRASQSISNYLTWYQQKPGKAPKLLIYEASSRPSGVPSRFSGSGSGTDFTLTISSLQPEDFATYYCQQWSRLPVTFGQGTKVEIKR |  | no binding | ~1
3 | anti-BCMA monoclonal antibody H13F1+L9B9 (antibody, human IgG1, kappa, V domains shown, also called mutant of C4 (IgG1 subtype)) VH: QVQLVQSGAEVKKPGSSVKVSCKASGYTFTNYWMHWVRQAPGQGLEWMGATYRGHSDTYYNQKFKGRVTITADKSTSTAYMELSSLRSEDTAVYYCTRGAVYAGYDVLDYWGQGTTVTVSS VL: DIQMTQSPSSLSASVGDRVTITCRASQSISNYLTWYQQKPGKAPKLLIYEASSRPSGVPSRFSGSGSGTDFTLTISSLQPEDFATYYCQQWSRLPVTFGQGTKVEIKR | ~8 |  | 
